The target in this data set is SlDOF9-His (Solanum lycopersicum, UniProt A0A3Q7FC45 1-258). As to the kind of experiment: EMSA (supershift); anti-His antibody; Biotin-labeled and unlabeled probes with purified protein and anti-His antibody, room temperature, 30 min; buffer from kit, salt and pH not stated. To be noted: protein: recombinant, tags: C-terminal His, blunt.
SlDOF9-His, sequence (A0A3Q7FC45 entry or part of it): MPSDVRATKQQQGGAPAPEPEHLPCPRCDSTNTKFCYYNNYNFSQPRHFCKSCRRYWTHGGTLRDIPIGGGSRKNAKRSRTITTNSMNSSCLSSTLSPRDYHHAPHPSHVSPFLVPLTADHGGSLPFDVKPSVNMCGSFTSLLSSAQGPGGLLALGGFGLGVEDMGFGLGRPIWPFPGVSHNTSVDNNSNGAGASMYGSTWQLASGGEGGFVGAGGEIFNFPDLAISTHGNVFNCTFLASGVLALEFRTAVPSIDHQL

B1: TS2 (dsDNA)
DNA 1: AGCCAGAAAAGAAAATACAATAATTCTCATT
DNA 2: AATGAGAATTATTGTATTTTCTTTTCTGGCT
For B1, where the note is “label: biotin (labeled probe)”, the binding result was “binds”.

B2: TS1 (dsDNA)
DNA 1: AAAAAGTGATAAGAAAAAACATCCAAGCCCT
DNA 2: AGGGCTTGGATGTTTTTTCTTATCACTTTTT
With B2, under “label: biotin (labeled probe)”, the binding result was “binds”.

B3: TS1m (dsDNA)
DNA 1: AACATGTGATAAGAAAAAACATCCAAGCCCT
DNA 2: AGGGCTTGGATGTTTTTTCTTATCACATGTT
Turning to B3, the binding result is “no binding”.

For the origin of these results see article PMC12302606, “The SlDOF9‐SlSWEET17 Module: a Switch for Controlling Sugar Distribution Between Nematode Induced Galls and Roots in Tomato”.
